This note sets out measurements from article PMC7577978, “IM30 IDPs form a membrane-protective carpet upon super-complex disassembly” (Communications Biology, 2020).

Positions count from the first letter of the chain named. Numbers in names are those of the source.

Data set [1] concerns the target T1, IM30-Venus, Venus-labeled Synechocystis IM30 (Synechocystis sp. PCC 6803, UniProt Q55707 1-267).
T1 construct: IM30 (VIPP1) of Synechocystis sp; PCC 6803; Venus fragment ligated into pRSET SynIM30 plasmid; purified as the His-tagged WT, so a His tag is likely present; also called Venus-labeled IM30 monomers; source: E. coli, copurified with IM30-CFP after mixing cell pellets prior to cell lysis
T1 sequence (looked up): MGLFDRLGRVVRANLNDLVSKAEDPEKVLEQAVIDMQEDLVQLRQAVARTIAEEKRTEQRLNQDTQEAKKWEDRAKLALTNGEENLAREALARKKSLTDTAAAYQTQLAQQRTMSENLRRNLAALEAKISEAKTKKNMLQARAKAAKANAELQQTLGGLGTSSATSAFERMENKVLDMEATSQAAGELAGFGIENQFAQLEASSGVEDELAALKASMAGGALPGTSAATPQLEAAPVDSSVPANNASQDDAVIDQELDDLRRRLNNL
Put plainly: FRET or BRET; 0.2 µM purified CFP/Venus labeled IM30 rings (copurified from mixed cell pellets, 27% CFP and 63% Venus w/w), excitation 420 nm, RT, with 0-1000 µM DOPG liposomes. The settings on record: both partners purified. For orientation: BRET reads energy transfer from a luciferase to a nearby fluorophore.

Data set [2] deals with the molecule itself. The data set can be described thus: SEC; Superose12 10/300 GL, 20 mM HEPES pH 7.6 with 0, 50, 100, 150 or 300 mM NaCl, 8 °C; IM30* at suitable NaCl concentrations. (Size exclusion chromatography separates by hydrodynamic size, large species first.)
Data set [3] deals with the molecule itself. The data set can be described thus: cross-linking; disulfide between Cys227 of two protomers; SDS-PAGE of the purified A227C mutants in absence of reducing agents.
Data set [4] deals with the molecule itself. Put plainly: atomic force microscopy; ~0.5 µM IM30 WT adsorbed on mica, 10 mM Tris or HEPES, 150 mM KCl, 25 mM MgCl2, pH 7.6; imaged in buffer at ~30 °C.
Data set [5] deals with the molecule itself. Put plainly: SEC-MALS; Superdex 200 Increase 10/300 GL, 25 mM HEPES pH 7.5, 125 mM NaCl, 5% glycerol (w/w), RT.

B1: IM30-CFP, CFP-labeled Synechocystis IM30 (natural protein, Synechocystis sp. PCC 6803, UniProt Q55707 1-267, looked up)
chain: T1 sequence (looked up)
notes: IM30 (VIPP1) of Synechocystis sp; PCC 6803; CFP fragment ligated into pRSET SynIM30 plasmid; purified as the His-tagged WT, so a His tag is likely present; also called CFP labeled IM30 monomers; source: E. coli, copurified with IM30-Venus after mixing cell pellets prior to cell lysis
As for B1, the binding result in data set [1] is recorded as “binds”.

B2: IM30* (E83A, E84A, F168A, E169A, R170A, M171A), oligomerization-impaired mutant of Synechocystis IM30 (natural protein, Synechocystis sp. PCC 6803, UniProt Q55707 1-267, looked up)
chain: T1 sequence (looked up) with E83A, E84A, F168A, E169A, R170A, M171A
notes: IM30 (VIPP1) of Synechocystis sp; PCC 6803, full length, with six alanine substitutions made by site-directed mutagenesis; For SEC-SAXS the protein was heated to 50 °C, cooled slowly and buffer-exchanged by SEC before the run; also called IM30* dimers
The stoichiometry N is a count of units in the complex or per binding partner. Take B2: the “stoichiometry N” value in data set [2] worked out at 2.

B3: IM30_A227C, A227C mutant of Synechocystis IM30 WT (natural protein, Synechocystis sp. PCC 6803, UniProt Q55707 1-267, looked up)
chain: T1 sequence (looked up) with A227C
notes: IM30 (VIPP1) of Synechocystis sp; PCC 6803, full length, with A227C; the methods print '(A272C)' in brackets after the name IM30_A227C, the results and the legend say A227C; also called A227C mutant of IM30 WT
Turning to B3, in data set [3], the binding result is on record as “binds”.

B4: IM30*_A227C (E83A, E84A, F168A, E169A, R170A, M171A, A227C) (natural protein, Synechocystis sp. PCC 6803, UniProt Q55707 1-267, looked up)
chain: T1 sequence (looked up) with E83A, E84A, F168A, E169A, R170A, M171A, A227C
notes: IM30 (VIPP1) of Synechocystis sp; PCC 6803, full length, the six alanine substitutions of IM30* and A227C in the linker between helix 6 and 7; also called A227C mutant of IM30*
Regarding B4, in data set [3], the binding result is given as “binds”.

B5: inner membrane-associated protein of 30 kDa (IM30) wild type, N-terminally His-tagged, from Synechocystis sp. PCC 6803 (natural protein, UniProt Q55707 1-267, looked up)
chain: T1 sequence (looked up)
notes: IM30 (VIPP1) of Synechocystis sp; PCC 6803, full-length wild type; also called IM30 WT; VIPP1
B5: in data set [4], the binding result is “binds”.

B6: IM30_H3b-7 (amino acids 147-267), WT fragment of Synechocystis IM30 (domain or fragment, Synechocystis sp. PCC 6803, UniProt Q55707 147-267, looked up)
chain: KANAELQQTLGGLGTSSATSAFERMENKVLDMEATSQAAGELAGFGIENQFAQLEASSGVEDELAALKASMAGGALPGTSAATPQLEAAPVDSSVPANNASQDDAVIDQELDDLRRRLNNL
notes: IM30 (VIPP1) of Synechocystis sp; PCC 6803, amino acids 147-267 (helices 3b-7); also called helices 3b-7; intrinsically disordered C-terminus
Take B6: the “stoichiometry N” value in data set [5] came out at 2.
